Results reported in IntAct's records for PubMed 22913516.

Target: kcc2b_mouse Camk2b (UniProt P28652)
Sequence (P28652 whole entry): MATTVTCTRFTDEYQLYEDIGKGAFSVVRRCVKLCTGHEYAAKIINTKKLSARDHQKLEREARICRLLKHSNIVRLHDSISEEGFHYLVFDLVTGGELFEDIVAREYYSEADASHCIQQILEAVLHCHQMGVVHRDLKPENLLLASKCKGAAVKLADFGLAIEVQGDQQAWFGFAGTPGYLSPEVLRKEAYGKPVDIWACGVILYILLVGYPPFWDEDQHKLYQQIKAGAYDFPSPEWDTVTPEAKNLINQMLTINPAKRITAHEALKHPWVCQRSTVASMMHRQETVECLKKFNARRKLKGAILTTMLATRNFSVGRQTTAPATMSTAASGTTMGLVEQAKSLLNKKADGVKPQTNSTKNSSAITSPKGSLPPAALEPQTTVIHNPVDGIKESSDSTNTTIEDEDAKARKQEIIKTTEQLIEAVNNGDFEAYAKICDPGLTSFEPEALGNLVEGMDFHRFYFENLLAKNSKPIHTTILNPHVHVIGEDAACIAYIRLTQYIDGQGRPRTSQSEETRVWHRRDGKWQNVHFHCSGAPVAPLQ

effect of a mutation on the interaction: decreasing interaction
Substance: Ryanodine receptor 1 (Oryctolagus cuniculus (Rabbit)), P11716 S2843A
